Data: patent US20100255003A1

Columns and labels:
Experiment in all cases: cell-based or functional assay
[1] = target: Thrombospondin (TSP)-1 (human) (UniProt P07996)
CD36 (human) = CD36 (human) (UniProt P16671)
[2] = target: CD51/alphaV integrin (human) (UniProt P06756)
Chain of UniProt P06756 (P06756 31-1048): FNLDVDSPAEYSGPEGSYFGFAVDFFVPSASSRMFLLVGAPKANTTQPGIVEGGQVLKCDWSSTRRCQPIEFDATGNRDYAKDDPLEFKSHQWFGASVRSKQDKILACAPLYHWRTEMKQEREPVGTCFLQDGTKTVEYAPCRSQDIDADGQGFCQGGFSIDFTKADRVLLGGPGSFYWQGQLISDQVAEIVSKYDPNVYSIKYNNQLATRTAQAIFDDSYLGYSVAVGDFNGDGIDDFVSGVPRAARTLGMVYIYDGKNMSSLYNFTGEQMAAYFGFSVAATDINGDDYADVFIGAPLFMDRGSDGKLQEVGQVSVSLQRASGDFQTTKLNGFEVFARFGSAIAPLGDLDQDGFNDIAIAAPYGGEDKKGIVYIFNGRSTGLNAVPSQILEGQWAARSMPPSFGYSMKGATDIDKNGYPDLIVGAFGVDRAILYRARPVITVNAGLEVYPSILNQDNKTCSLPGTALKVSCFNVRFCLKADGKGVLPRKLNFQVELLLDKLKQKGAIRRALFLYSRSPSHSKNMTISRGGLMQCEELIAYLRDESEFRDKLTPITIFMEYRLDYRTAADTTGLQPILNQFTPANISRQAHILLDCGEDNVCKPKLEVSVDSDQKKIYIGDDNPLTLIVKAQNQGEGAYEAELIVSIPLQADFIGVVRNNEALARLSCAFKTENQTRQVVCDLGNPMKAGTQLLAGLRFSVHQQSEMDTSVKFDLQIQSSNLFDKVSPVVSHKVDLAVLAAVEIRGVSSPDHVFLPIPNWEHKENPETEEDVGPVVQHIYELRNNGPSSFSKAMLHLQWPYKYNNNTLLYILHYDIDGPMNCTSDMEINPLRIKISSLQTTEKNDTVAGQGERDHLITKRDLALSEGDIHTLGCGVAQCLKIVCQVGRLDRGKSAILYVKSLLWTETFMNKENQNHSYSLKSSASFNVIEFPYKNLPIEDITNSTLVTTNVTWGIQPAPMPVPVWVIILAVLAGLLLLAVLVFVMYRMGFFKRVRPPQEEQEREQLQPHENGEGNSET

Chain of UniProt P16671 (P16671 2-472): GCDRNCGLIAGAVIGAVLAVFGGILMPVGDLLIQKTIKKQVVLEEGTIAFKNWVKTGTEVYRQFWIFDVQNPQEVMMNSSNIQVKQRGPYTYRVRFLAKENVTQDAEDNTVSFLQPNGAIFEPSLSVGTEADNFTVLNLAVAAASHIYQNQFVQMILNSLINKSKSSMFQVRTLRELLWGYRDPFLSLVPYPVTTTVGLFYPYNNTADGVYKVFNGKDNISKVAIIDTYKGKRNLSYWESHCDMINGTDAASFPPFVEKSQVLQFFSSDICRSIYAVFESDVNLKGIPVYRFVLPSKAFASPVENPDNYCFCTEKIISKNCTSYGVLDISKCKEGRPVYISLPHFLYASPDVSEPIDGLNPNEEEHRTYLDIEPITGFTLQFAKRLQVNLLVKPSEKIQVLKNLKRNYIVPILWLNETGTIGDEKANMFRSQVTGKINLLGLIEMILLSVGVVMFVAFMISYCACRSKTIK
Chain of UniProt P07996 (P07996 19-1170 A84T limits assumed): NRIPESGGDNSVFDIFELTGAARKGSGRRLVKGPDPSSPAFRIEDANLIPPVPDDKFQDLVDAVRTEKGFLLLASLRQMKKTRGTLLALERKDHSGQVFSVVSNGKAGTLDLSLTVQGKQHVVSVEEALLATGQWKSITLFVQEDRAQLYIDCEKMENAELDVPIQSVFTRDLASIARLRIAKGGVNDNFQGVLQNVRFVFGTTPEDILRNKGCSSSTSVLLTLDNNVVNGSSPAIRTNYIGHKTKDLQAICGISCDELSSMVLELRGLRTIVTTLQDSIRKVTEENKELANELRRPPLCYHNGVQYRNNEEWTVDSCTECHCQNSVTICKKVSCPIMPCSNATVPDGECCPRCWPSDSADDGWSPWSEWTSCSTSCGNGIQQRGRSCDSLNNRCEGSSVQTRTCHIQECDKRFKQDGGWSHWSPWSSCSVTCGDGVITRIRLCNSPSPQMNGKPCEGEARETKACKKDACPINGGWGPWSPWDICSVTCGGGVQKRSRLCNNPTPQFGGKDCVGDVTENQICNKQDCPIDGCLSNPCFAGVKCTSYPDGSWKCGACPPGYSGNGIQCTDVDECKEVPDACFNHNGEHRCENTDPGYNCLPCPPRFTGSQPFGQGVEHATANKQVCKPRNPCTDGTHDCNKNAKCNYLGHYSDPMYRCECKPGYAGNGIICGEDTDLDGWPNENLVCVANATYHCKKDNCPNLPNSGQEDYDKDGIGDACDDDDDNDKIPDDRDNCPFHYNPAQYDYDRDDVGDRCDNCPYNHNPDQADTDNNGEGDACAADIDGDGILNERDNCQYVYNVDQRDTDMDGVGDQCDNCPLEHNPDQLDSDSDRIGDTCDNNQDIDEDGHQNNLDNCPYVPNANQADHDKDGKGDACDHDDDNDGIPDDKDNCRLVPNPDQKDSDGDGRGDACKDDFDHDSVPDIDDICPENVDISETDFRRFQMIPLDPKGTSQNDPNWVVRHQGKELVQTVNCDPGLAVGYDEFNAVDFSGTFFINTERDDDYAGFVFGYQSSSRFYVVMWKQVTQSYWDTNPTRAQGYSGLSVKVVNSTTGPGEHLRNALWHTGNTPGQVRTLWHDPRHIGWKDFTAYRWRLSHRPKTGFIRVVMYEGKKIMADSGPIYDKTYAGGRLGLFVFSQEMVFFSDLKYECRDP

## azide-free polyclonal goat anti-human thrombospondin-1 N-terminus antibody N-20 (Santa Cruz Biotechnology, Cat No. sc-12312)
[1]
  inhibition of apoptotic monocyte endocytosis by immature dendritic cells (percentage of thrombospondin-1-dependent endocytosis): 90 percent

## mouse IgM anti-human CD36 monoclonal antibody (clone SMO; Serotec, Cat. No. MCA722XZ)
CD36 (human)
  inhibition of apoptotic monocyte endocytosis by immature dendritic cells (percentage of thrombospondin-1-dependent endocytosis): 64 percent

## mouse anti-CD51/integrin alphaV monoclonal antibody (clone AV1; Chemicon International, Cat. No. MAB2021Z)
[2]
  inhibition of apoptotic monocyte endocytosis by immature dendritic cells (percentage of thrombospondin-1-dependent endocytosis): 24 percent
